According to patent publication US20080311122A1, “Antagonists of Hmgb1 and/or Rage and Methods of Use Thereof” (Medimmune, LLC, priority 2005, published 2008):
“Also recorded” adds a separate entry of the source.

B1: S17: human anti-HMG1 antibody; VL/VH aa SEQ ID NO: 70/72 (antibody, listed as Homo sapiens, V domains shown)
VH: EVQLLESGGGLVQPGGSLRLSCAASGFTFSYYDMHWVRQAPGKGLEWVSRISPSGGYTWYADSVKGRFTISRDNSKNTLYLQMNSLRAEDTAVYYCTRGRYTSGWHEYFDPWGQGTLVTVSS
VL: AQDIQMTQSPSSLSASVGDRVTITCRASQSIGTYLNWYQQKPGTAPKVLIYAASSLQSGVPSRFSGSGSGTDFTLTISSLQPEDFSTYYCQQSYNTPRTFGQGTKLEIK
B2: E11: human anti-HMG1 antibody, recognizes HMG1 A-Box; VL/VH aa SEQ ID NO: 24/26 (antibody, listed as Homo sapiens, V domains shown)
VH: EVQLLESGGGLVQPGGSLRLSCAASGFTFSRYQMNWVRQAPGKGLEWVSSISPSGGHTHYADSVKGRFTISRDNSKNTLYLQMNSLRAEDTAVYYCAKDGRQGKISTVDHWGQGTLVTVSS
VL: AQDIQMTQSPGTLSLSPGERATLSCRASQSVRSNFLAWYQQKPGQAPRLLIYGASRRASGIPDRFSGSGFGADFTLSISRLEPEDFAVYYCQQYGSSPNTFGQGSRVEIK
B3: G20: human anti-HMG1 antibody; VL/VH aa SEQ ID NO: 46/48 (antibody, listed as Homo sapiens, V domains shown)
VH: EVQLLESGGGLVQPGGSLRLSCAASGFTFSWYDMFWVRQAPGKGLEWVSWISPSGGYTKYADSVKGRFTISRDNSKNTLYLQMNSLRAEDTAMYYCARSGLDYYDSSGYLDAFDIWGQGTMVTVSS
VL: AQDIQMTQSPSSVSASVGDRVTITCRASQDVSIWLAWYQQKPGKAPKLLIFGASRLQSGVPSRFSGSRSGADFTLTIDSVQPEDFASYYCQQADSFPLTFGGGTKVEIK
B4: G2: human anti-HMG1 IgG1 from Fab phage display library; VL/VH aa SEQ ID NO: 30/32 (antibody, listed as Homo sapiens, V domains shown)
VH: EVQLLESGGGLVQPGGSLRLSCAASGFTFSWYKMQWVRQAPGKGLEWVSGISPSGGSTAYADSVKGRFTISRDNSKNTLYLQMNSLRAEDTAVYYCAKMGLFNTGNSYVDYWGQGTLVTVSS
VL: AQSELTQPPSVSEAPGQRVTISCSGSTSNIGNNAVIWYQQLPGKAPKLLIYYDDLLPSGVSDRFSGSKSGTSGSLAISGLQSEDEADYYCASWDDNLNGPLFGGGTKLTVL
B5: G9: human anti-HMG1 antibody; VL/VH aa SEQ ID NO: 34/36 (antibody, listed as Homo sapiens, V domains shown)
VH: EVQLLESGGGLVQPGGSLRLSCAASGFTFSSYDMFWVRQAPGKGLEWVSRISPSGGYTYYADSVKGRFTISRDNSKNTLYLQMNSLRAEDTAVYYCARLRYFDSRGYAFDIWGQGTMVTVSS
VL: AQDIQMTQSPGTLSLSPGERATLSCRASQSVRSSYLAWYQQKPGQAPRLLIYGASTRATGIPDRFSGSGSGTDFTLTISRLEPEDFAVYYCQQYGTSRWTFGQGTKVEIK
B6: S16: human anti-HMG1 antibody, ATCC PTA-6259; VL/VH aa SEQ ID NO: 13/15 (antibody, listed as Homo sapiens, V domains shown)
VH: EVQLLESGGGLVQPGGSLRLSCAASGFTFSWYSMLWVRQAPGKGLEWVSYISPSGGFTNYADSVKGRFTISRDNSKNTLYLQMNSLRAEDTAVYYCARWDYNSGWYYDHWGQGTLVTVSS
VL: AQDIQMTQSPDTLSLSPGERATLSCRASQSVNSRNLAWYQQKPGQAPRLLIYGASTRATGIPDRFSGSVSGTEFTLTISSLQPDDFATYYCQQYNSYFTFGQGTKLEIK

Assays:
[1] = test system: native activated HMG1 stimulated IL-6 release from human PBMCs; test: Inhibition of cytokine release from PBMCs, native activated HMG1; type: cell-based
Method: Inhibition of Cytokine Release: Human peripheral blood mononuclear cells (PBMCs) were isolated from the peripheral blood of healthy volunteers by a density gradient centrifugation. Freshly drawn heparinized whole blood was mixed with two volume of PBS. The diluted blood was gently layered on the surface of Histopaque-1077 (Sigma-Aldrich) and centrifuged at 400×g, at RT for 30 minute. PBMCs were collected from the interface between the plasma and the density gradient solution. After washing in PBS 3×, the purified PBMCs were resuspended in RPMI-1640 medium (GIBCO BRL) containing 100 U/ml penicillin, 100 μg/ml streptomycin and […] β-mercaptoethanol. 1×10^5 of cells was added in each well of 96-well cell culture plates.
The PBMCs were incubated for two hours at 37° C. with 5% CO2. recombinant HMG1, at 4 μg/ml, or native activated HMG1 from 2.4×10^5 LPS stimulated THP-1 cells, and different concentrations of human anti-HMGB-1 monoclonal antibodies, a RAGE-FC fusion protein or an HMG1 A-box-Fc fusion protein were added into each well. The culture media was supplemented with 8 U/ml (1 μg/ml) Polymyxin B sulphate (Sigma-Aldrich) to inhibit potential endotoxin. PBMCs from the same donor without stimulation with HMG1 were used as controls. The cell-free culture media were harvested after 14 hours and stored at −20° C.
The culture media were analyzed for inflammatory cytokines using Beadlyte human multi-cytokine flex kit from Upstate by Luminex 100 (Luminex Corp.). Proinflammatory cytokines TNF-α, IL-6, IL-1β and IL-12 (p40) were measured for cells stimulated with recombinant HMG1. In addition, TNF-α, IL-6, IL-1β and IL-8 were measured for cells stimulated with native activated HMG1.
Cytokine release data is presented as mean of triplicates±standard deviations. IC50 for anti-HMGB1 monoclonal antibody is defined as the concentration of antibody required yielding one-half maximal inhibition of the cytokine release from PBMCs stimulated by HMGB1. It was calculated by PRISM program.

[2] = test system: HMG1 induced TLR4 activation; test: TLR4 activation assay (NF-κB luciferase reporter, 293 cells); type: cell-based, human
Method: TLR4 Activation Assay: HuTLR4 and CD14 stably expressed 293 cells (Invitrogen) were seeded in a 96 well plate at 2×10^4/well in 100 μl of DMEM with 10% FCS overnight. Cells were then transfected with NF-κB/Luc (Stratagene) luciferase reporter construct as indicated by the kit for 24 hr. A mixture of HMGB1 and anti-HMGB1 was added to cells at 100 μl/well overnight. The luciferase activity was then measured to reflect TLR4 activation (Promega).

THP-1 cells = test: HMG1 binding to THP-1 cells; parameters: species or system human
Method: HMG1 binding to THP-1 Cells: Recombinant rat HMGB-1 was labeled using Eu-labelling Kit from PerkinElmer. Molar ratio of HMGB-1 to Eu is 1:5. THP-1 were cultured as the protocol from ATCC. Cells were harvested and suspended at concentration 1×10^6/ml in assay buffer containing 1×DELFIA L*R binding buffer (PerkinElmer), 50% of DELFIA stabilizer (PerkinElmer) and 0.05% of sodium azide. 100 μl of cells (1×10^5) was added into wells in 96 well cell culture plate. The plate was incubated with gentle shaking at 4° C. for one hour. 100 μl of assay buffer containing 2 nM of Europium-labeled HMGB-1 mixed with various concentrations (333, 166.5, 83.25, 41.6, 20.8, 10.4 and 5.2 nM) of human anti-HMGB1 antibodies E11 or G2 or soluble human RAGE-Fc, were added into each wells respectively. After one hour incubation with gentle shaking at 4° C., the cells were washed four times with 1×L*R wash buffer (PerkinElmer) by centrifuging at 1200 rpm×5 min. 200 μl of enhancement solution was added into each well to dissociate and enhance Eu fluorescence at 615 nm. The fluorescence was measured with Wallac Victor Fluorometer. Assay was performed in triplicate and human antibody R3-47 was used the negative isotype control.

[3] = test system: Tx-HMGB1+LPS stimulated IL-6 release (TLR4 signaling); test: Inhibition of HMG1 mediated enhancement of TLR signaling, Tx-HMGB1+LPS in human PBMCs; type: cell-based
Method: Cytokine Release Assays: Human PBMCs were treated with rHMG1 in the presence or absence of Polymyxin B (FIG. 20). Human PBMCs were treated with rHMG1 and Tx-HMGB1 at concentrations up to 4 μg/ml (FIG. 21). ˜16 μg/mL (512 nM) Tx-HMGB1 was incubated with 61.5 EU/mL (6.15 ng/mL; approx. 0.615 nM) LPS overnight at 4° C. The sample was diluted as indicated and added to human PBMCs (FIG. 22). In all assays the cells were incubated overnight at 37° C., 5% CO2 and the supernatants were assayed for cytokine levels by Bioplex assay. When present Polymyxin B was used at 8 U/mL.
Inhibition of HMG1 Mediated Enhancement of TLR Signaling: Human PBMCs were treated with Tx-HMGB1+LPS (as described above) in combination with either the Anti-HMG1 antibody E11, S16 or G4, anti-TLR4 antibody, or isotype control antibodies (R3, IgG2a) and incubated overnight at 37° C., 5% CO2 in the presence of 8 U/mL Polymyxin B. The supernatants were assayed for cytokine levels (FIG. 22, right panel).

Molecule	block of IL-6 release induced by native activated HMG1 [1]	block of HMG1 induced TLR4 activation [2]	block of HMG1 binding to THP-1 cells (THP-1 cells)	inhibition of Tx-HMGB1+LPS induced IL-6 release [3]
B1	able to block IL-6 released induced by native activated HMG1			
B2	able to block IL-6 released induced by native activated HMG1	able to inhibit HMG1 activation of TLR4; also recorded: significant ability to block HMG1 induced TLR4 activation	block the binding of HMG1 to THP-1 cells	reduction in IL-6 release to near background levels; also recorded: block the Tx-HMG1 mediated enhancement of TLR4 signaling; also recorded: can be inhibited
B3		able to inhibit HMG1 activation of TLR4		
B4			block the binding of HMG1 to THP-1 cells	
B5	less effective			
B6	able to block IL-6 released induced by native activated HMG1			reduction in IL-6 release to near background levels; also recorded: block the Tx-HMG1 mediated enhancement of TLR4 signaling; also recorded: can be inhibited
